# In publication PMC7948962, “Wzb of Vibrio vulnificus represents a new group of low-molecular-weight protein tyrosine phosphatases with a unique insertion in the W-loop” (The Journal of Biological Chemistry, 2021):
# Test system: O=[N+]([O-])c1ccc(OP(=O)(O)O)cc1
# Assay: p-nitrophenol release, A405, initial velocity, Michaelis-Menten fit
# Type: biochemical, Escherichia coli
# Settings: 10 mM HEPES pH 7.5, 150 mM NaCl, 20 °C, 200 nM enzyme
# Description: p-nitrophenol release, A405, initial velocity, Michaelis-Menten fit on EcWzb
substance,measurement,setting,value
EcWzb (Escherichia coli K-12),Km,,3480 ± 240 µM
same,kcat,,2.84 ± 0.1 s⁻¹
same,kcat/Km,,820 M⁻¹ s⁻¹
EcWzb (Escherichia coli K-12; INS39AAAA),Km,A39_L40insAAAA,2050 ± 100 µM
same,kcat,A39_L40insAAAA,6.09 ± 0.09 s⁻¹
same,kcat/Km,A39_L40insAAAA,2970 M⁻¹ s⁻¹
EcWzb (Escherichia coli K-12; INS39EKSR),Km,A39_L40insEKSR,2530 ± 30 µM
same,kcat,A39_L40insEKSR,9.34 ± 0.1 s⁻¹
same,kcat/Km,A39_L40insEKSR,3690 M⁻¹ s⁻¹
